Experimental data reported in patent US20060263828A1.

Target: Flag-β2AR (UniProt P07550)
Assay: cell-based or functional assay

β2AR degradation after 24 hrs of isoproterenol treatment (125I CYP binding on whole HEK 293 cells; mock about 25%): 6 to 7%
Substance: β-arrestin2 (from UniProt P29067 1-410)
